Data as given in PMC7059301.

Biological target: Aspergillus niger α-xylosidase AxlA (Aspergillus niger)
Assay: crystal structure

For “Aspergillus niger α-xylosidase AxlA (enzyme)”, the stoichiometry N was 4.
